The text below walks through data of US20260242478A1 (published 2026).

The target of test [1] is T1, PSMA Fab.
T1 construct: also called Anti-PSMA Fab; 006 PSMA Fab
The experiment in a line: clonal phage ELISA; biotinylated PSMA Fab on neutravidin plate, anti-M13 HRP detection. (An ELISA detects its analyte on a solid surface through an enzyme-linked reagent.)
Description: (§1) Clonal phage were harvested as crude supernatants and screened via standard ELISAs. […] Prior to the addition of clonal phage. wells were incubated with blocking buffer and PSMA antigen or blocking buffer alone. Without washing or aspirating, clonal phage supernatants were then added to the wells and incubated for a short time. Wells were then washed followed by detection of bound phage using a horse radish conjugated anti-M13 antibody.

In test [2] the target is T1, PSMA Fab. The experiment in a line: clonal phage ELISA on captured PSMA Fab; wells pre-incubated with PSMA antigen as competitor.
Description: as §1
Test [3] has as its target T2, PSMA Fab (biotinylated (site not stated)).
T2 construct: also called Anti-PSMA Fab; 006 PSMA Fab
The experiment in a line: clonal phage ELISA; biotinylated PSMA Fab on neutravidin plate, blocking buffer alone, anti-M13-HRP detection.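 Note: crude clonal phage supernatants added without washing to wells preincubated with PSMA antigen or with blocking buffer alone, briefly incubated, then washed before bound phage detection.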

Test [4] addresses T2, PSMA Fab. The experiment in a line: clonal phage ELISA; biotinylated PSMA Fab on neutravidin plate, wells pre-incubated with PSMA antigen as competitor, anti-M13-HRP detection.
Description: as §1
Test [5] addresses T3, PSMA Fab.
T3 construct: also called Anti-PSMA Fab; 006 PSMA Fab
Description: clonal phage ELISA; biotinylated PSMA Fab on neutravidin plate; wells pre-incubated with PSMA antigen as competitor; anti-M13-HRP detection.
Description: as §1

Test [6] deals with T3, PSMA Fab. The experiment in a line: clonal phage ELISA; biotinylated PSMA Fab on neutravidin plate; anti-M13-HRP detection; no PSMA antigen.
Description: as §1

Where no end group is shown, it is not given here.

B1: Phage-2860 (peptide)
peptide: EWILCKPAWMCDGL
modifications: cysteine pairing not given here; also: fused to pIII of display bacteriophage, linker and sequence not given here
notes: Clonal phage of the Peptide-180 library; not shown: pIII filament protein of the display bacteriophage
Turning to B1, in the test with PSMA Fab [1], the “Phage binding ELISA signal, Anti-PSMA Fab” value amounted to 2.43. Further, the “Phage binding ELISA signal (Anti-PSMA Fab, with competitor)” value with PSMA Fab [2] stood at 0.0639.
On to SGNWCTPSWMCTGF [Phage-2677], for which the “Phage binding ELISA signal, Anti-PSMA Fab” value with PSMA Fab [3] amounted to 0.874; in the test with PSMA Fab [4], 0.062.
Take VTNWCIPEWMCNGN [Phage-2667]: the “Phage binding ELISA signal, Anti-PSMA Fab” value in the test with PSMA Fab [3] came to 0.894; with PSMA Fab [4] it was 0.0615.
Regarding EHKWCIPDWMCWED [Phage-2675], the figures for the “Phage binding ELISA signal, Anti-PSMA Fab” value with PSMA Fab [3] and in the test with PSMA Fab [4] were 0.876 and 0.0562, respectively.
Taken in the same sequence, the figures for EEKWCIPYWMCEAV [Phage-2669] were 0.885 and 0.0691.
On to LDMLCIPAWMCEPR [Phage-2674], for which the entries for the “Phage binding ELISA signal, Anti-PSMA Fab” value with PSMA Fab [3] and in the test with PSMA Fab [4] were 0.877 and 0.0925, respectively.

B2: Phage-2857 (peptide)
peptide: LERACVPSWMCTGF
modifications: cysteine pairing not given here; also: fused to pIII of display bacteriophage, linker and sequence not given here
notes: as for B1
B2: the “Phage binding ELISA signal, Anti-PSMA Fab” value in the test with PSMA Fab [1] worked out at 2.44. In the test with PSMA Fab [2], the “Phage binding ELISA signal (Anti-PSMA Fab, with competitor)” value worked out at 0.0938.
Regarding DEIWCIPRWMCDGI [Phage-2462], in the test with PSMA Fab [5], the “Phage binding ELISA signal, Anti-PSMA Fab with PSMA antigen” value is 0.0834. Besides, in the test with PSMA Fab [6], the “Phage binding ELISA signal, Anti-PSMA Fab” value worked out at 1.25.

B3: Phage-2853 (peptide)
peptide: MLPLCVPAWMCSGF
modifications: cysteine pairing not given here; also: fused to pIII of display bacteriophage, linker and sequence not given here
notes: as for B1
For B3, in the test with PSMA Fab [1], the “Phage binding ELISA signal, Anti-PSMA Fab” value turned out to be 2.44. Further, the “Phage binding ELISA signal (Anti-PSMA Fab, with competitor)” value with PSMA Fab [2] is 0.12.

B4: Phage-2852 (peptide)
peptide: VMPLCKPAWMCGGF
modifications: cysteine pairing not given here; also: fused to pIII of display bacteriophage, linker and sequence not given here
notes: as for B1
Regarding B4, the “Phage binding ELISA signal, Anti-PSMA Fab” value with PSMA Fab [1] was 2.46. Further, in the test with PSMA Fab [2], the “Phage binding ELISA signal (Anti-PSMA Fab, with competitor)” value amounted to 0.134.
Take QEKWCIPEWMCSVR [Phage-2672]: the “Phage binding ELISA signal, Anti-PSMA Fab” value worked out at 0.879 with PSMA Fab [3] and 0.0823 in the test with PSMA Fab [4].
As for WDNWCTPSWMCSEL [Phage-2671], the entries for the “Phage binding ELISA signal, Anti-PSMA Fab” value with PSMA Fab [3] and with PSMA Fab [4] were 0.883 and 0.0853, respectively.
With AGHWCIPMWMCQED [Phage-2679], the “Phage binding ELISA signal, Anti-PSMA Fab” value in the test with PSMA Fab [3] was 0.874; in the test with PSMA Fab [4], 0.0526.
With VMKWCTPQWMCEHL [Phage-2465], the “Phage binding ELISA signal, Anti-PSMA Fab with PSMA antigen” value in the test with PSMA Fab [5] amounted to 0.068. For the same molecule, the “Phage binding ELISA signal, Anti-PSMA Fab” value in the test with PSMA Fab [6] amounted to 1.25.

B5: Phage-2850 (peptide)
peptide: VNIRCEPAWMCMGF
modifications: cysteine pairing not given here; also: fused to phage pIII, linker not given here
notes: as for B1
In the case of B5, in the test with PSMA Fab [1], the “Phage binding ELISA signal, Anti-PSMA Fab” value stood at 2.46. In addition, the “Phage binding ELISA signal (Anti-PSMA Fab, with competitor)” value with PSMA Fab [2] was found to be 0.108.

B6: Phage-2858 (peptide)
peptide: TQAMCKPAWMCQGF
modifications: cysteine pairing not given here; also: fused to pIII of display bacteriophage, linker and sequence not given here
notes: as for B1
With B6, the “Phage binding ELISA signal, Anti-PSMA Fab” value with PSMA Fab [1] is 2.44. Further, the “Phage binding ELISA signal (Anti-PSMA Fab, with competitor)” value with PSMA Fab [2] came to 0.0783.
In the case of ITKLCTPPWMCMDV [Phage-2668], the “Phage binding ELISA signal, Anti-PSMA Fab” value with PSMA Fab [3] was determined as 0.886; in the test with PSMA Fab [4] it was 0.0571.
On to PVKLCKPDWMCWVS [Phage-2464], for which the “Phage binding ELISA signal, Anti-PSMA Fab with PSMA antigen” value with PSMA Fab [5] stood at 0.105. In the test with PSMA Fab [6], the “Phage binding ELISA signal, Anti-PSMA Fab” value is 1.25.
For DWKWCTPAWMCTQT [Phage-2673], the “Phage binding ELISA signal, Anti-PSMA Fab” value in the test with PSMA Fab [3] amounted to 0.877; with PSMA Fab [4], 0.0698.

B7: Phage-2855 (peptide)
peptide: WEMKCIPEWMCRGF
modifications: cysteine pairing not given here; also: fused to pIII of display bacteriophage, linker and sequence not given here
notes: as for B1
Turning to B7, in the test with PSMA Fab [1], the “Phage binding ELISA signal, Anti-PSMA Fab” value is 2.44. Moreover, the “Phage binding ELISA signal (Anti-PSMA Fab, with competitor)” value in the test with PSMA Fab [2] is 0.139.

B8: Phage-2678 (peptide)
peptide: NVIRCEPMWMCYPS
modifications: cysteine pairing not given here; also: displayed on bacteriophage as fusion to pIII
Consider B8, for which the results for the “Phage binding ELISA signal, Anti-PSMA Fab” value with PSMA Fab [3] and in the test with PSMA Fab [4] were 0.874 and 0.0918, respectively.

B9: Phage-2856 (peptide)
peptide: VQRMCEPSWMCFGF
modifications: cysteine pairing not given here; also: fused to pIII of display bacteriophage, linker and sequence not given here
notes: as for B1
As for B9, the “Phage binding ELISA signal, Anti-PSMA Fab” value in the test with PSMA Fab [1] was determined as 2.44. In the test with PSMA Fab [2], the “Phage binding ELISA signal (Anti-PSMA Fab, with competitor)” value worked out at 0.0783.
With SVKLCIPDWMCVSE [Phage-2461], the “Phage binding ELISA signal, Anti-PSMA Fab with PSMA antigen” value with PSMA Fab [5] came to 0.203. The “Phage binding ELISA signal, Anti-PSMA Fab” value with PSMA Fab [6] is 1.26.

B10: Phage-2859 (peptide)
peptide: WEFVCKPEWMCTGF
modifications: cysteine pairing not given here; also: fused to phage pIII, linker not given here
notes: as for B1
For the molecule B10, in the test with PSMA Fab [1], the “Phage binding ELISA signal, Anti-PSMA Fab” value is 2.43. Further, the “Phage binding ELISA signal (Anti-PSMA Fab, with competitor)” value with PSMA Fab [2] came to 0.102.

B11: Phage-2676 (peptide)
peptide: IAKWCTPPWMCADN
modifications: cysteine pairing not given here; also: displayed on bacteriophage as fusion to pIII
Take B11: the “Phage binding ELISA signal, Anti-PSMA Fab” value with PSMA Fab [3] amounted to 0.876; in the test with PSMA Fab [4], 0.079.
For DGKWCIPEWMCAQQ (cysteine pairing not given here; also: displayed as fusion to phage pIII) [Phage-2463], the “Phage binding ELISA signal, Anti-PSMA Fab with PSMA antigen” value with PSMA Fab [5] is 0.0837. Also, the “Phage binding ELISA signal, Anti-PSMA Fab” value in the test with PSMA Fab [6] came to 1.25.

B12: Phage-2851 (peptide)
peptide: DMRLCVPEWMCLGL
modifications: cysteine pairing not given here; also: displayed on phage as fusion to pIII, linker and sequence not given here
notes: as for B1
Regarding B12, the “Phage binding ELISA signal, Anti-PSMA Fab” value with PSMA Fab [1] stood at 2.46. Also, in the test with PSMA Fab [2], the “Phage binding ELISA signal (Anti-PSMA Fab, with competitor)” value was 0.0789.
Take AGKLCIPNWMCEEQ [Phage-2670]: the “Phage binding ELISA signal, Anti-PSMA Fab” value is 0.884 with PSMA Fab [3] and 0.0913 with PSMA Fab [4].

B13: Phage-2666 (peptide)
peptide: PPKWCIPAWMCAGM
modifications: cysteine pairing not given here; also: displayed on bacteriophage as fusion to pIII
For the molecule B13, the entries for the “Phage binding ELISA signal, Anti-PSMA Fab” value with PSMA Fab [3] and with PSMA Fab [4] were 0.895 and 0.0794, respectively.

B14: Phage-2854 (peptide)
peptide: VHIMCKPAWMCLGF
modifications: cysteine pairing not given here; also: fused to pIII of display bacteriophage, linker and sequence not given here
notes: Clonal phage of the Peptide-180 library; the cell for position 10 (c11) is missing in the printed row; not shown: pIII filament protein of the display bacteriophage
Turning to B14, the “Phage binding ELISA signal, Anti-PSMA Fab” value in the test with PSMA Fab [1] came out at 2.44. For the same molecule, the “Phage binding ELISA signal (Anti-PSMA Fab, with competitor)” value with PSMA Fab [2] is 0.246.

B15: Phage-2861 (peptide)
peptide: WDRLCIPAWMCSGF
modifications: cysteine pairing not given here; also: fused to pIII of display bacteriophage, linker and sequence not given here
notes: as for B1
For B15, in the test with PSMA Fab [1], the “Phage binding ELISA signal, Anti-PSMA Fab” value was found to be 2.43. In addition, in the test with PSMA Fab [2], the “Phage binding ELISA signal (Anti-PSMA Fab, with competitor)” value worked out at 0.197.
